{
  "source": "paper PMC1079850",
  "origin": "cited, not measured here",
  "molecular_target": "Tsr (Escherichia coli) (UniProt P02942)",
  "sequence (P02942 whole entry)": "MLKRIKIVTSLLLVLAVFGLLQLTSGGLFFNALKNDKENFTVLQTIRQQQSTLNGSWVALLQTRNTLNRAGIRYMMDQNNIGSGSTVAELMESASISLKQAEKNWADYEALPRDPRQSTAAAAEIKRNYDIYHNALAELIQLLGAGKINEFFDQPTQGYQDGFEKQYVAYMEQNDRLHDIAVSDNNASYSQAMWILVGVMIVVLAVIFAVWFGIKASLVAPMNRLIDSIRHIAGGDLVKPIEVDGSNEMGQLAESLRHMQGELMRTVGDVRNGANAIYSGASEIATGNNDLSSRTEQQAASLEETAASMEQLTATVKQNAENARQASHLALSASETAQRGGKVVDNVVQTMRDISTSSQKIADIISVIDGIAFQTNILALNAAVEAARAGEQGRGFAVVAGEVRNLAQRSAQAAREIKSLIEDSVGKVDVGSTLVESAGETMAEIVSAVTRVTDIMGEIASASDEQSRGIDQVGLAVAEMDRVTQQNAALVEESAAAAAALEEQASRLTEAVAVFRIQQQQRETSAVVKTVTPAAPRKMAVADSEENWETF",
  "assay": "given as Ka",
  "note": "pKd: −log10 of the molar value.",
  "data": [
    {"substance": "CheR (from UniProt P07364)", "values": [
      {"measurement": "pKd", "value": 5.60}
    ]}
  ]
}
